According to patent EP1262190A1, “RFRP-CONTAINING PROLACTIN SECRETION REGULATORY AGENT” (Takeda Chemical Industries, Ltd., priority 2000, dated 2001):

Molecular target: human 0T7T022 receptor (human)
Experiment: cell-based or functional assay

| ED50, inhibition of the cAMP level increased by forskolin [nM] | Substance |
| --- | --- |
| 21 | hRFRP-1-37 (peptide having the 56 (Ser) to 92 (Phe) amino acid sequence in SEQ ID NO:1) |
| 30 | rRFRP-1-37 (peptide having the 58 (Ser) to 94 (Phe) amino acid sequence in SEQ ID NO:50) |
